Experimental data published in US20090156489A1 (Genentech, published 2009).

B1: human NGL-1-Fc (extracellular domain of human NGL-1 fused to human IgG1 Fc) (Fc fusion)
chain: QTCPSVCSCSNQFSKVICVRKNLREVPDGISTNTRLLNLHENQIQIIKVNSFKHLRHLEILQLSRNHIRTIEIGAFNGLANLNTLELFDNRLTTIPNGAFVYLSKLKELWLRNNPIESIPSYAFNRIPSLRRLDLGELKRLSYISEGAFEGLSNLRYLNLAMCNLREIPNLTPLIKLDELDLSGNHLSAIRPGSFQGLMHLQKLWMIQSQIQVIERNAFDNLQSLVEINLAHNNLTLLPHDLFTPLHHLERIHLHHNPWNCNCDILWLSWWIKDMAPSNTACCARCNTPPNLKGRYIGELDQNYFTCYAPVIVEPPADLNVTEGMAAELKCRASTSLTSVSWITPNGTVMTHGAYKVRIAVLSDGTLNFTNVTVQDTGMYTCMVSNSVGNTTASATLNVTAATTTPFSYFSTVTVETMEPSQDEARTTDNNVGPTPVVDWETTNVTTSLTPQSTRSTEKTFTIPVTDINSGIPGIDEVMKTTK
notes: also called NGL-1-ECD IgG Fc fusion protein; PRO331 ECD-Fc; not shown: human IgG1 Fc region
B2: human Netrin-G1-his (purified Netrin-G1 protein with a C-terminus His tag) (receptor, UniProt Q9Y2I2-1 29-409, looked up, not shown: small tags and cut ends)
chain: HYDLCKTQIYTEEGKVWDYMACQPESTDMTKYLKVKLDPPDITCGDPPETFCAMGNPYMCNNECDASTPELAHPPELMFDFEGRHPSTFWQSATWKEYPKPLQVNITLSWSKTIELTDNIVITFESGRPDQMILEKSLDYGRTWQPYQYYATDCLDAFHMDPKSVKDLSQHTVLEIICTEEYSTGYTTNSKIIHFEIKDRFAFFAGPRLRNMASLYGQLDTTKKLRDFFTVTDLRIRLLRPAVGEIFVDELHLARYFYAISDIKVRGRCKCNLHATVCVYDNSKLTCECEHNTTGPDCGKCKKNYQGRPWSPGSYLPIPKGTANTCIPSISSIGTNVCDNELLHCQNGGTCHNNVRCLCPAAYTGILCEKLRCEEAGSCGS
notes: Used purified in the pull-down and as a crude preparation (1 ug/ml) for coating in the solid phase assay; also called NetrinG-his
B3: recombinant human cMet-Fc fusion protein (R&D Systems) (Fc fusion)
chain: ECKEALAKSEMNVNMKYQLPNFTAETPIQNVILHEHHIFLGATNYIYVLNEEDLQKVAEYKTGPVLEHPDCFPCQDCSSKANLSGGVWKDNINMALVVDTYYDDQLISCGSVNRGTCQRHVFPHNHTADIQSEVHCIFSPQIEEPSQCPDCVVSALGAKVLSSVKDRFINFFVGNTINSSYFPDHPLHSISVRRLKETKDGFMFLTDQSYIDVLPEFRDSYPIKYVHAFESNNFIYFLTVQRETLDAQTFHTRIIRFCSINSGLHSYMEMPLECILTEKRKKRSTKKEVFNILQAAYVSKPGAQLARQIGASLNDDILFGVFAQSKPDSAEPMDRSAMCAFPIKYVNDFFNKIVNKNNVRCLQHFYGPNHEHCFNRTLLRNSSGCEARRDEYRTEFTTALQRVDLFMGQFSEVLLTSISTFIKGDLTIANLGTSEGRFMQVVVSRSGPSTPHVNFLLDSHPVSPEVIVEHTLNQNGYTLVITGKKITKIPLNGLGCRHFQSCSQCLSAPPFVQCGWCHDKCVRSEECLSGTWTQQICLPAIYKVFPNSAPLEGGTRLTICGWDFGFRRNNKFDLKKTRVLLGNESCTLTLSESTMNTLKCTVGPAMNKHFNMSIIISNGHGTTQYSTFSYVDPVITSISPKYGPMAGGTLLTLTGNYLNSGNSRHISIGGKTCTLKSVSNSILECYTPAQTISTEFAVKLKIDLANRETSIFSYREDPIVYEIHPTKSFISGGSTITGVGKNLNSVSVPRMVINVHEAGRNFTVACQHRSNSEIICCTTPSLQQLNLQLPLKTKAFFMLDGILSKYFDLIYVHNPVFKPFEKPVMISMGNENVLEIKGNDIDPEAVKGEVLKVGNKSCENIHLHSEAVLCTVPNDLLKLNSELNIEWKQAISSTVLGKVIVQPDQNFT
notes: extracellular domain; Bought protein; the construct is not described; not shown: Fc part of the bought fusion protein, not described

Assays:
human HGF protein = target: T1, human HGF protein (human, UniProt P14210 32-728, limits assumed); test: solution binding assay, pull-down with protein A beads, blot probed with anti-HGF (panel j)
T1 construct: also called hepatocyte growth factor
Protocol: (§1) Recombinant human NGL-1-Fc (a-c), human Netrin-G1-Fc (d-f) and human DCC-Fc (g-i) were used to label COS7 cells expressing human NGL-1 (a, d, g), human Netrin-G1 (b, e, h), chicken Netrin-1 (c, f, i). Specific binding of the transfected cells was evident for Netrin-G1-expressing cells labeled with NGL-1-Fc (b), for NGL-1-expressing cells labeled with Netrin-G 1-Fc (d), as well as for Netrin-1-expressing cells labeled with DCC-Fc (i). (j) The recombinant ECD-Fc fusion proteins (5 nM) indicated at the top (lanes 3-7) were incubated with human Netrin-G1-his (first row), chicken Netrin-1-his (second row) or human HGF protein (third row) in a solution binding assay. Complexes were pulled down by protein A-conjugated beads and probed with His-Probe (anti-His), antibodies to chicken netrin-1 and monoclonal antibodies to human HGF, as indicated. Direct and specific binding of NGL-1-Fc and netrin-G1-His (50 kDa) is shown in the first row. The netrin-1-His protein (75-85 kDa) binds strongly to DCC-Fc and Unc5-Fc (lanes 3 and 4, second row), extremely weakly to NGL-1-Fc (lane 5, second row), and not at all to human cMet-Fc (lane 6). HGF binds to cMet-Fc (lane 6, third row). Lane 1, directly loaded netrin-G1-His; lane 2, directly loaded netrin-1-His; lane 7, directly loaded HGF.
(§2) The question remained whether Netrin-G1 and NGL-1 directly interact with each other. […]

[1] = target: T2, human NGL-1 expressed on COS7 cells (human, UniProt Q9HCJ2 43-640); test: cell surface binding assay on transfected COS7 cells, fluorescence microscopy
T2 construct: also called PRO331; Netrin-G1 Ligand
T2 sequence: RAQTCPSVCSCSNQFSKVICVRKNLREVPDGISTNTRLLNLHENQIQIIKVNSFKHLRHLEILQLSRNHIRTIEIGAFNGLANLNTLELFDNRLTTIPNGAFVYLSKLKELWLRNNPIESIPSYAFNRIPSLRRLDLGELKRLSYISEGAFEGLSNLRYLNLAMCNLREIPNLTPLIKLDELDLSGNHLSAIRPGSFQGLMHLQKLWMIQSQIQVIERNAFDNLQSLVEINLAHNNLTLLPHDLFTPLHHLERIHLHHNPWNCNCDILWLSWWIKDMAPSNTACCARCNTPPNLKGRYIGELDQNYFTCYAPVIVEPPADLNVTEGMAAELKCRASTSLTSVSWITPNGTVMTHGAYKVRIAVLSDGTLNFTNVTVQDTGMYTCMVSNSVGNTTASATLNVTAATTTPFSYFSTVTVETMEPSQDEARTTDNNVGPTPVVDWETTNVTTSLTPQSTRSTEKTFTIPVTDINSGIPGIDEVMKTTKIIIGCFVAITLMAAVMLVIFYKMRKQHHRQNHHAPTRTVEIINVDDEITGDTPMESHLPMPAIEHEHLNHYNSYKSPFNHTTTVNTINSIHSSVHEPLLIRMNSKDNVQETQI
Protocol: (§3) The resultant fusion proteins were expressed and used in binding assays over a panel of ˜400 putative cell surface transmembrane or GPI-anchored cell surface human proteins that were transiently expressed in COS7 cells. Purified ECD-Fc fusion proteins (0.5 μg/ml) or the crude baculovirus lysates were added to transiently transfected COS7 cells for 1-2 hours at room temperature. After 3 rinses with cold phosphate buffered saline (PBS), the bound protein was cross-linked to the cell surface with 4% paraformaldehyde. The bound Fc fusion protein was detected by biotinylated anti-human IgGFc and R-phycoerythrin-conjugated streptavidin (Jackson Immunoresearch). Cell surface staining was visualized by fluorescent microscopy and images were taken with the Penguin 800CL digital camera system (Pixera).
(§4) Although the NGL-1 and Netrin-G1 interaction appeared to be specific within the context of the screen, the classical Netrins and their known receptors, DCC and Unc5, were not included in the screen. Thus whether NGL-1 also interacts with Netrin-1 and its receptors was determined. Using the same cell surface binding assay, NGL-1, Netrin-G1, or Netrin-1 were expressed in COS7 cells (rows in FIG. 1a-i) and their ability to bind the IgG Fe fusion protein of NGL-1, Netrin-G1, or DCC (columns in FIG. 1a-i) was determined. […]

[2] = target: B2; test: solid phase binding assay: Netrin-G1-his coated in microtiter wells, NGL-1-Fc in solution, OD450; specific binding = total minus cMet-Fc binding
Protocol: (§5) The binding affinity of NGL-1 and Netrin-G1 was then evaluated by a solid phase binding assay. Crude NetrinG-his protein (1 μg/ml) was coated in microtiter wells and non-specific binding sites saturated with 0.5% BSA. Purified NGL-1-Fc protein was serially diluted and added to the coated wells for 1 hour. Signals were detected with the biotinylated anti-human IgGFc antibody, horseradish peroxidase-conjugated strepavidin and a chromogenic substrate TMB (Kirkgaard and Perry Lab). The reactions were terminated with phosphoric acid and absorbance at 450 nm was measured. Non-specific binding was determined in parallel by omitting the microtiter well coating or by incubating the wells with the irrelevant cMet-Fc fusion protein, and dissociation constants were determined using saturation curves and Scatchard analysis (FIG. 2a). […] Cell 87, 175-185. (1996)].

[3] = target: T3, DCC expressed on COS cells (human, UniProt P43146 26-1447); test: cell surface binding assay on transfected COS7 cells, fluorescence microscopy (data not shown)
T3 construct: whole, on cells
Protocol: as §3, §4

[4] = target: B1; test: solid phase binding assay, Netrin-G1-his coated wells, serial dilution of NGL-1-Fc, saturation curve and Scatchard analysis
Protocol: as §5

[5] = target: B3; test: solution binding assay, protein A bead pull-down, blot probed with HisProbe
Protocol: as §1, §2

[6] = target: recombinant 6xHis-tagged chick Netrin-1 protein (R&D Systems) (chicken, UniProt Q90922 26-606); test: solution binding assay, protein A bead pull-down, blot probed with anti-chicken Netrin-1
Protocol: as §1, §2

T3 sequence (P43146 26-1447): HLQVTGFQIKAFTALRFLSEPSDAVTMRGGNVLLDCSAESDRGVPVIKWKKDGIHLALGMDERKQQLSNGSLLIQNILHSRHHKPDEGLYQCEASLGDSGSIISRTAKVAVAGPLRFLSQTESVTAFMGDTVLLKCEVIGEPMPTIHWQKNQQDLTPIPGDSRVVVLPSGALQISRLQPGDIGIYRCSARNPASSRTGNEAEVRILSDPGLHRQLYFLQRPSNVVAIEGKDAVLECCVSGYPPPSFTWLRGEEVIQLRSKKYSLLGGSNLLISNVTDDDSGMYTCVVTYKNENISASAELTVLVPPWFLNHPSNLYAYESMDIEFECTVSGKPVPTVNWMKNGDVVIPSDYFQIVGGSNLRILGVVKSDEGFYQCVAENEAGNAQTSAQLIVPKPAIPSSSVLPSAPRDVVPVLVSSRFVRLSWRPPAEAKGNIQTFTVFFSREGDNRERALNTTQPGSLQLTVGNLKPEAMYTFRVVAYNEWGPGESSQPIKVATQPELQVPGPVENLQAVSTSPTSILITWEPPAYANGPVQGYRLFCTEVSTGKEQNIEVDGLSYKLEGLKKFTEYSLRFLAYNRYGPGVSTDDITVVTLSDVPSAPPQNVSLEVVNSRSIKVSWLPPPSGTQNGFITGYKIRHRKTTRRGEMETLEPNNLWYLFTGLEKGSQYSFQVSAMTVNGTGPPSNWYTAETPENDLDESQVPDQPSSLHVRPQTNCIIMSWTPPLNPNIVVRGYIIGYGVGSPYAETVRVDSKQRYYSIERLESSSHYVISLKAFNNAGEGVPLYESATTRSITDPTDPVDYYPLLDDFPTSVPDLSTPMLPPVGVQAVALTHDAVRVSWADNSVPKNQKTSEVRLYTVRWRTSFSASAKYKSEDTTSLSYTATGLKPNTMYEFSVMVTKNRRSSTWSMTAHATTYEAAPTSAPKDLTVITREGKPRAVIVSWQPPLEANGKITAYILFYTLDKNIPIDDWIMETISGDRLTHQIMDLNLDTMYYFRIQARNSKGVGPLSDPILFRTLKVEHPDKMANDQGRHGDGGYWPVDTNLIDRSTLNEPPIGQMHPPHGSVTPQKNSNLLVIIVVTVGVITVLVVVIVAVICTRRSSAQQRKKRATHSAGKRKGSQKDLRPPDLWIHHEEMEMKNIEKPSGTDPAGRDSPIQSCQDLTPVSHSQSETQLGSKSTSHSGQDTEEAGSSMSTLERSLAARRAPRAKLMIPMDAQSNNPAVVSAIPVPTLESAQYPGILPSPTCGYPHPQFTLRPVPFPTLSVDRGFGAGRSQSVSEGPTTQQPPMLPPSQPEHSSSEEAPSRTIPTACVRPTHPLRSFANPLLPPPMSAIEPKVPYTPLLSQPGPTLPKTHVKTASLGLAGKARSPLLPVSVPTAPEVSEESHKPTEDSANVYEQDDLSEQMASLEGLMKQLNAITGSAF
T1 sequence (P14210 32-728 limits assumed): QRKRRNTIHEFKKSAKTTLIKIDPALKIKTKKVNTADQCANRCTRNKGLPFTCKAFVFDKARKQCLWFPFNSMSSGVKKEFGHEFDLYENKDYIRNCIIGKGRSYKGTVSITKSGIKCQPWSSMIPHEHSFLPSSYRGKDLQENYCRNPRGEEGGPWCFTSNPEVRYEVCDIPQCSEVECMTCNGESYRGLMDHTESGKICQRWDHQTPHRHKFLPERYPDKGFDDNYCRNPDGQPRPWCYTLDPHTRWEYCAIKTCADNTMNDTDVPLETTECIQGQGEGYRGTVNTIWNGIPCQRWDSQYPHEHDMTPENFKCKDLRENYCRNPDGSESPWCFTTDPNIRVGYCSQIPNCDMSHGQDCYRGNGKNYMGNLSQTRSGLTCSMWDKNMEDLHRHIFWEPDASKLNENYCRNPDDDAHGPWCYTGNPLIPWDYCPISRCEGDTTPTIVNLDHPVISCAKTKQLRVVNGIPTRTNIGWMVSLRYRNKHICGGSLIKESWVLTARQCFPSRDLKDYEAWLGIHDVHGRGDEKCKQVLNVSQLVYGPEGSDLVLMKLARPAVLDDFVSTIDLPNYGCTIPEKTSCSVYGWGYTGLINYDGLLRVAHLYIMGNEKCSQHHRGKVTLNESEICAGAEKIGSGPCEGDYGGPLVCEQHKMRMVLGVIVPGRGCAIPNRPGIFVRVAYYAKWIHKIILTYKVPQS

Q: Does B1 bind (human HGF protein)?
A: Result: no binding (tested: 5 nM)

Q: Does B1 bind [1]?
A: Result: no binding

Q: And the “EC50 (read off the curve)” value [2]?
A: Its value is about 2 nM.

Q: Does B1 bind [3]?
A: Result: no binding

Q: How did the Kd [4] turn out when B2 was run?
A: The Kd was 1.6 nM.

Q: Does B2 bind [5]?
A: Result: no binding

Q: Does B3 bind [6]?
A: Result: no binding
